Test: soluble on expression in E. coli; label from the status in PepcDB or PDB records

Row | Sequence | soluble on expression in E. coli
1 | MGSDKIHHHHHHMENILEIVNLNKSYNGIPALSNINLSVKAGEIHGIVGANGSGKTTLMNILFGNPIIHETGGYQGQIFFKGNRVNFKNCAEAIRQGIGMVHQEFALIPDMTVGENIKLGRENTHSLTDRLFGRKYSFIDWKQDYENAWQTLKRLGISVAVGIKIMDLSVNIRQFIEIAREIDRSDLKLLILDEPTAVLNKNDGLKLIEILKDMSNSEIGIIFISHRLEEVQYVCDKVSVLRDGKLVSQYAKGNIYVNDLAQDMIGHTINKAAAEKREIKNKPLITFKDFSVEMPGEEVKNLNLSVYKGEILGLTSLSGHGKLALGYGMMDMYPVDGEVYYENKKIVKMNARTNIIKGMYVLPDDRQGLGILADQSLESNIVFTGNQIKNMFIRNSAFNFLGFIDHHKTNLHVYKMMLDLDIKCTSIKQKVKELSGGNQQKVCIARALTVDPKLLFVAEPTRGIDISAKEKILNMLIEINRTRNTTIIIASSELDELKRVCDRIAVMVEGKIFKILSPDSPDVDFGLVLSGEEEVDCEKL | not soluble
2 | MGSDKIHHHHHHMENLIKIDTVDQYNKMFGLETLHPLVSVVDLSKSETWPTNFRVNYGIYGLFLKDTKCGDIRYGRQYYDYQEGTVVGFAPGQVTGIELKDGTRPLAHGLLFHPDLIRGTALGRDIKRYSFFSYESNEALHLSEEEKGIFVDCLRKIQIELEHSIDKHSKRLIAMNIELLLDYCLRFYDRQFTTRAETNKDVLVRFERLLDEYLQSDLLRQEGLPTVRYFAEKICLSPNYFGDLIKKETGKTAQENIQDRIISLAKEWIVGTNKTVSQIAYDLGFQYSQHFSRIFKKTVGCTPNEYRKSQMS | not soluble
3 | MGSDKIHHHHHHMENLLEVQQLNKSYKNSEFQLTDITFSVKPGEVVGLIGKNGSGKSTLINTLVGNRHKDNGSLKFFNKEVTENDFKYKEHLGVVFDDLRVPDKLTLQSINKVFTEIYDAWNSDTFFSLIKAFELPTNNQIKTFSRGMRMKAALTIALSHDAKLLILDEATAGMDVSGREHVLEILEDYLGDDRAILISSHISEDIEQLATQLVFMRDGRIILKESKEVLLSQYGIIDQPVEHFNISNEYLIATRRRNDRQISLVNNYQKVPDAQPLKTIDDATKIIMRGEV | not soluble
4 | MGSDKIHHHHHHMERLDVFDCSNVLIASYFTDDRGCAHENREHTLIYLCSGELEIEERGKKTVLHPGDCAFMRRDNRMWLQKKVEDGKPYRSVVLKFSRPFLREFYQTLNRQQIPTDSEREKVSLRVLPSNRPDIRSLFESVIPYFDAGEKPSEDVLKLKMVEGIYVLLNTDRNLYASLFDFVEPWKIDILDYLNENYMCDLSLEEIASYTGRSLATFKRDFAKVSNLTPQKWIVKRRLEAAHGLIKSGKKKVTEACFDVGFKNLSHFSKIYKEAYGVAPSW | not soluble
5 | MGSDKIHHHHHHMERQARIIAFYATNENVGKSTLSIAMANELAHLGKKVLYVEADQVRPSFAVGTGLSHDSKNILELVRKENEYNLSQYICTKQDLLERKMNPRLMQKLHDKMDFLVFPSGYNLAQFPEIQNKELFVTTFIESLVDTEYDSIILSVPTELSEVLSYPILYQSDLVIHVLNGNPRGAIAIKRELQLLEEAKLTLPRMIHVLNMADEDYVEDIEKLSSQKIAVTIPYDRDRTSYEWGMQFGSPQINTKVHHIMEAAGLDIPTQHTSSMKKGLFGLRN | not soluble
6 | MGSDKIHHHHHHMESTMKLATAPDAWGVWYADDPRQTPWERYLDEVRDSGFTATETGPWGYLPTDPSHLTDALGSRGLSVCGSALVHLLAPADAMETLRPRLEQTCGLLKAMKAEWVVLMDDSDLPLPGQSRALSPHDWASMIRNIKDAARYVTEEHGLSFVFHPHVGSGVETEAEVIRLLEETSEDSVGLCFDFGHHAYTGADAVAFMKRYADRIPYYHFKNVDPVLLAHIRQNNINFIEGFQSGVMCELDKGMVDFAEVRDFLATRGFDGYAVYEQDMYPCPPEKPFPIACHNRQVLRELGI | not soluble
7 | MGSDKIHHHHHHMESVYLFSSGTLKRKANTICLETESGRKYIPVENVMDIKVFGEVDLNKRFLEFLSQKRIPIHFFNREGYYVGTFYPREYLNSGFLILKQAEHYINQEKRMLIAREIVSRSFQNMVDFLKKRKVRADSLTRYKKKAEEASNVSELMGIEGNAREEYYSMIDSLVSDERFRIEKRTRRPPKNFANTLISFGNSLLYTTVLSLIYQTHLDPRIGYLHETNFRRFSLNLDIAELFKPAVVDRLFLNLVNTRQINEKHFDEISEGLMLNDEGKSLFVKNYEQALRETVFHKKLNRYVSMRSLIKMELHKLEKHLIGEQVFGSEE | not soluble
8 | MGSDKIHHHHHHMETFHLTRNEMATLLLSLRGWNTKKPLGILQEAWAKSHKKDIESGQSVTAFITTALSPIFEKLIKIDDTDVGFSLNEIVALGNQIENTSFSVTAMQNWVKRDIKEMIGSPQKGKKYSIEQAALLFIVEDLKTALDFESIRKLLRLIVNDPADRSDDLINPVHLYGAYSSLFEELNQGNCLQLNATDTIHTIENIVKERADKIASKFDQVNNEQREAIRNAIIIATLSVHTAYVQMLAKRYVTATLFLQNLDVKP | not soluble
9 | MGSDKIHHHHHHMETKINSKALKAEALRLGFSACGIAPAEPIDQAHQNALKMWLDADRQAGMTYMANHFDKRCDPALLVEGTRCVVSVALNYYPATRIPDEEYQFAWYAYGKDYHDLMREKLATLFRFIQESDVPELNGRMFCDTAPVPERYWAWRAGLGWIGKNTQLIIPHAGSTFFLGELFLNTEADTYDRPQPNRCGRCNRCLQACPTKALETPYSLNAHRCLSYLTIENKSEIPDSIAPFMGNRVYGCDECQKACPWNRFATPCRTPELQPSPEFMNMKKEDWKQLSEEKYRALFKGSAVKRAKYSGLIRNIRQMED | not soluble
10 | MGSDKIHHHHHHMETLRILHTNDLHSHFEHFPKIGRYLKKAQADNSVDEVYTFDAGDFMDRSHPLTDATEGQANIKLMNGFKYTAVTIGNNEGISNPHWVLEHLFDHADFPTVLANLREEDESMPNWAIGHKILTTKKNTRIALIGLTAAYPMTYGPNHWHVKMLGSTMDKELAKINGQYDMLILITHIGLKMDRWLAKNYPQIDLIVGGHSHDLIVQGEKVDHTWITQTGKWGNYVGDIHVELEDHHVTKIVPNTVATASMPEEPEDESVIKGYYEKGKQLLSERKVAKLPEKFADDKIAAVQVSLDAIADFAKTDLAILSSGLFLTPFKSGILTQFDLQNALPHPMHVVRSTLKGSDLWRLVMEIEKNRHYLDHFPLQGMSFRGKIFGQMYYKGIKVDMRKRIVYVNGQEINPDSEYRIACLDHYVLVPFFPTLAIVGENEFLFPQFLREVVGDYLAKKYPLPARSEIND | not soluble
11 | MGSDKIHHHHHHMETRKLAVFVDLATTQNYSRSAERMFLSQSTISKYIMALERDWQVQLFERAHRQVTLTRIGQQLLPRAQAILREERQLQQVLAANTAHNAQSLVVQGLPSLAQYQAFHIITAFTKRYPEVKLQFSEASVDRLAHALDHTNVDIVFTRIFGDQPNNYDVLLNETDQFVVLVPKDDPLAQQAEISLSMLAHESILLLKDTIGEDNPLFSAFQKMHTPQMVYDGQRIDLILEMLNQGDGVSVVMARSFDLTGFDNIKAIPLTPTIRSQMAFMKRPDNHAAVVAKFWAFATKYSQSLSD | not soluble
12 | MGSDKIHHHHHHMEVERLSLKEFCDMVAERKPTPGGGAVGSVVGAMACALAEMVANFTRKKKGYEDVEPEMERIVEAMEEARLKLFDLAKKDMEAFEKVMKAYKSSEGELQNALKEAASVPMDVIRVMKDLAHELEKLAEFGNKNLASDTLNAADLCHAVFQVEKVNVLINLKEISDETFRKNMLEELEEQEAQIEGCYQRVKKMLEGIVWSSK | soluble
13 | MGSDKIHHHHHHMEVKPFRPLIYRKEIDGMISPPFDAITPKQEIELKRNPYNITYLTLPKGRDGVSHARMIMENWIENGVLLRAERDCIIVLKQIFSANSRRITRYGIIARVRVFPENGDVIPHERTFDEFVRDREILMEGIGSQLEPIFLVTLKNELPQYLKIITENMKEDNRYFGPENVENYVYYIYDHKEIQKISNILRNDIAIVADGHHRLQATKNIASRQSGLAREFWSYAMSYVTSIHDEGVLIGGVHRVISSRFRFDADRASKYFYVDQCDTIAGNDPVIYDGRFYCIRPRENVYDNIIDSLNDFLFSKTIGMSTIDLERDVIYTHDYAEVVNLVNSGSFSFGVIMPDWDKAHLVELLLTRKILPQKSTYFYPKIPSGISIDSISEFIVT | not soluble
14 | MGSDKIHHHHHHMEYVIEMNNITKVFPGIVANDDITLQVKQGEIHALLGENGAGKSTLMNVLFGLYQPEQGEIKIKGKPVKITNPNIANDLGIGMVHQHFMLVHNFTVTENIILGNEPKKNGKIAVEEAAKEIKQLSEQYGLAVDPHAKIEDISVGMQQRVEILKTLYRGAEILIFDEPTAVLTPQEIHELIQIMKKLVQEGKSIILITHKLKEIMEVCDRCTIIRKGKGIGTVDVAETDEHKLAELMVGRQVNFKTEKIEAKPMEEVLSIANLIVHDTRKLPAVKGLDLTVRAGEIVGIAGIDGNGQSELIEAITGLRKVESGSIAIKGKEITNWPVRRITEEGIGHIPEDRHKHGLVLDFSVRDNIVLQTYYKNPFSKKGILNFSKITEKAKALIEQFDVRTPSEQTLARALSGGNQQKAIIAREVDRNPDLLIAAQPTRGLDVGAIEFIHKKLIEQRDNGKAVLLLSLELDEILNVSDRVAVIYEGKIVAIVDAKETNEQQLGLLMAGGTGKEKVNTNG | not soluble
15 | MGSDKIHHHHHHMFAMAGFPDKIKTIKKGLDVPIAGEPRQEIDCCARPAKVALLGEEYVGLKPTLLVEVGDRVKKGQTLFEDKKAPGIGFTAPASGVVVEINRGERRVLQSVVIQVEGDEQVTFKAYSDLSRLSREAVQQNLAESGLWTALRTRPFSRVPLLDSEPAAIFVNAMDTNPLAADPRVIIAEQREAFAAGLEVLTYLTSGKIHLCHDAGEALPGADLARVESHRFAGVHPAGLVGTHIHFIAPASLERPVWHLGYQDVIAYGKLFLTGELYTDRVVALGGPTALNPRLLRTQLGAQLSTLVEGEIKPGSNRVVSGSVLAGHTAFGVHDYLGRFHQQISVLAEDAKHQLLPWVRGGADKFSITRAVTSRFKATKRLFDLTTHAGGSHRAMMAFGQLDRVMPLDILPTLLVRDLVVRDTDEAQALGALELDEEDLALCTFVCPGKYDFGRELRICLDIIEREG | not soluble
16 | MGSDKIHHHHHHMFIKNAWYVACRPEEIQDKPLGRTICGEKIVFYRGKENQVAAVEDFCPHRGAPLSLGYVEDGNLVCGYHGLVMGCDGKTVSMPAQRVNGFPCNKAYAVVEKFGFIWVWPGEKALADEAKLPTLEWADHPEWSYGGGLFHIQCDYRLMIDNLMDLTHETYVHSSSIGQKEIDEALPVTKVEGDHVITERYMENVIAPPFWQMALRGNHLADDVPVDRWQRCHFFAPSNVHIEVGVAHAGHGGYHAPKDKKVSSIVVDFITPETETSHWYFWGMARNFQPDNAELTDQIREGQGKIFTEDLEMLEQQQQNILNNPHRKLLMLNIDAGGVQSRKVIDRLLAEENKTPPETSTQKFPNIRII | not soluble
17 | MGSDKIHHHHHHMFISDVHLGSKAAKADFLIDFLRYHDADIIYLVGDIVDGWRLRRSWHWPQSHNDVVQKLLRKARKGASITYIAGNHDEFARQFQGVHFGGIVVADRAIHETADGKRLLVIHGDQFDTVVHNQRWLAYLGDHAYDAAMIVNRVVTRLRQLLGLPYWSFSSWAKVKVKKAVNFIGSFQTVLTEEARRSHVDGVICGHIHHAAIENFDDVRYINTGDWVESCTAVVEHFDGRMEILTWAQVLPESFDEPFIPMLIEDRVGQAA | not soluble
18 | MGSDKIHHHHHHMFKNVSWKLKEHSELKKYGIDHNILLDVVSRERRKIYFDYWKNLPKLVTSSLGLKFTDGTPVDALYEVFIEGIYDVDGFRPKMGDVVVDVGANYGDSSIWWAKKKFGAKVIAFEPLADVFHELEKNIRINHADVIAYNVALGNGNFINGSKQGNMFVAGGQAKIQTSRLDDYTFDRLDLLKIDVEGFEHDVLLGARSTISKFKPKIIIETHSVALRKLCHEFLISLGYSLSLEGRTIRAHSPGMDKVTNLFYSPII | not soluble

— the DeepSol protein solubility set
